The Immune Epitope Database (IEDB)

Legend:
HLA-A*31:01 = assay: IEDB peptide-MHC binding, purified MHC/direct/fluorescence; filed as Kd, often an IC50 or EC50 that approximates it; ≥ and ≤ were set here for values at or beyond the usual limits of such assays
HLA-B*27:05 [1] = assay: as above
HLA-A*26:01 [2] = assay: as above
HLA-B*58:01 = assay: as above
HLA-B*18:01 [3] = assay: as above
HLA-A*01:01 [4] = assay: as above
HLA-B*15:09 = assay: as above; conditions: source organism: Yersinia pestis CA88-4125
HLA-B*73:01 = assay: as above; conditions: source organism: Yersinia pestis CA88-4125
HLA-B*57:01 [5] = assay: as above
HLA-A*02:01 [6] = assay: IEDB peptide-MHC binding, purified MHC/competitive/fluorescence; filed as Kd, often an IC50 or EC50 that approximates it; ≥ and ≤ were set here for values at or beyond the usual limits of such assays; conditions: source organism: Yersinia pestis KIM10+
HLA-B*15:01 [7] = assay: as above
HLA-A*02:03 = assay: as above; conditions: source organism: Yersinia pestis KIM10+
HLA-A*30:01 = assay: as above
HLA-B*39:01 = assay: as above; conditions: source organism: Yersinia pestis KIM10+
HLA-A*11:01 [8] = assay: as above; conditions: source organism: Yersinia pestis KIM10+
HLA-B*45:06 = assay: as above; conditions: source organism: Yersinia pestis KIM10+
HLA-B*07:02 [9] = assay: as above
HLA-C*06:02 = assay: as above; conditions: source organism: Yersinia pestis KIM10+
HLA-A*68:02 [10] = assay: as above
HLA-B*83:01 = assay: as above; conditions: source organism: Yersinia pestis KIM10+
HLA-A*02:06 = assay: as above
HLA-B*15:42 = assay: as above; conditions: source organism: Yersinia pestis KIM10+
HLA-B*27:20 = assay: as above; conditions: source organism: Yersinia pestis KIM10+
HLA-B*40:02 = assay: IEDB peptide-MHC binding, cellular MHC/competitive/fluorescence; ≥ and ≤ were set here for values at or beyond the usual limits of such assays; conditions: source organism: Homo sapiens
HLA-B*08:01 = assay: IEDB peptide-MHC binding, purified MHC/direct/fluorescence; filed as Kd, often an IC50 or EC50 that approximates it; ≥ and ≤ were set here for values at or beyond the usual limits of such assays; conditions: source organism: Vibrio cholerae V52
HLA-A*02:01 [11] = assay: as above
HLA-B*15:01 [12] = assay: as above; conditions: source organism: Vibrio cholerae
HLA-B*40:01 = assay: as above
HLA-B*48:01 [13] = assay: as above; conditions: source organism: Vibrio cholerae
HLA-A*26:02 [14] = assay: as above; conditions: source organism: Vibrio cholerae V52
HLA-B*46:01 = assay: as above; conditions: source organism: Vibrio cholerae
HLA-A*11:01 [15] = assay: as above
HLA-B*08:02 = assay: as above
HLA-B*07:02 [16] = assay: as above; conditions: source organism: Vibrio cholerae
HLA-A*03:01 = assay: as above
HLA-A*68:02 [17] = assay: as above; conditions: source organism: Vibrio cholerae
HLA-A*26:03 = assay: IEDB peptide-MHC binding, purified MHC/competitive/fluorescence; filed as Kd, often an IC50 or EC50 that approximates it; ≥ and ≤ were set here for values at or beyond the usual limits of such assays
HLA-B*15:17 = assay: as above
HLA-A*69:01 = assay: IEDB peptide-MHC binding, purified MHC/direct/fluorescence; filed as Kd, often an IC50 or EC50 that approximates it; ≥ and ≤ were set here for values at or beyond the usual limits of such assays; conditions: source organism: Camelpox virus M-96
HLA-B*27:05 [18] = assay: IEDB peptide-MHC binding, purified MHC/competitive/fluorescence; filed as Kd, often an IC50 or EC50 that approximates it; ≥ and ≤ were set here for values at or beyond the usual limits of such assays; conditions: source organism: Candida albicans SC5314
HLA-A*26:01 [19] = assay: as above; conditions: source organism: Candida albicans SC5314
HLA-B*48:01 [20] = assay: as above; conditions: source organism: Candida albicans SC5314
HLA-A*26:02 [21] = assay: as above; conditions: source organism: Candida albicans SC5314
HLA-B*18:01 [22] = assay: as above; conditions: source organism: Candida albicans SC5314
HLA-A*01:01 [23] = assay: as above; conditions: source organism: Candida albicans SC5314
HLA-B*35:01 = assay: as above; conditions: source organism: Candida albicans SC5314
HLA-B*57:01 [24] = assay: as above; conditions: source organism: Candida albicans SC5314
[25] = source organism: Yersinia pestis
[26] = source organism: Yersinia pestis KIM10+
[27] = source organism: Vibrio cholerae
[28] = source organism: Vibrio cholerae V52
[29] = source organism: Vibrio cholerae 2740-80
[30] = source organism: Camelpox virus M-96
[31] = source organism: Candida albicans SC5314

Sequence SRWAISHWL has a Kd (HLA-A*31:01; [25]) of at least 20 µM, a Kd (HLA-B*27:05 [1]; [25]) of 0.0203 µM and a Kd (HLA-A*26:01 [2]; source organism: Yersinia pestis CA88-4125) of at least 20 µM. The Kd (HLA-B*58:01; [25]) was at least 20 µM, the Kd (HLA-B*18:01 [3]; [25]) was at least 20 µM and the Kd (HLA-A*01:01 [4]; [25]) was at least 20 µM. The Kd (HLA-B*15:09) was at least 20 µM, the Kd (HLA-B*73:01) was 0.167 µM and the Kd (HLA-B*57:01 [5]; [25]) was at least 20 µM. The Kd (HLA-A*02:01 [6]) was 0.0762 µM, the Kd (HLA-B*15:01 [7]; [26]) was 1.84 µM and the Kd (HLA-A*02:03) was 0.205 µM. It also gave a Kd (HLA-A*30:01; [26]) of 2.69 µM, a Kd (HLA-B*39:01) of 0.0363 µM and a Kd (HLA-A*11:01 [8]) of at least 20 µM. The Kd (HLA-B*45:06) was at least 5 µM, the Kd (HLA-B*07:02 [9]; [26]) was at least 20 µM and the Kd (HLA-C*06:02) was 0.0822 µM. It also gave a Kd (HLA-A*68:02 [10]; [26]) of at least 20 µM, a Kd (HLA-B*83:01) of at least 5 µM and a Kd (HLA-A*02:06; [26]) of 0.0086 µM. For the same sequence, the Kd (HLA-B*15:42) was at least 5 µM and the Kd (HLA-B*27:20) was 0.0048 µM.
Sequence REASPSRLS has an IC50 (HLA-B*40:02) of 1.9 µM.
For REFSKEPEL, the IC50 (HLA-B*40:02) was 0.8 µM.
AADFPGIAR was tested, and the Kd (HLA-B*08:01) was at least 20 µM, the Kd (HLA-A*02:01 [11]; [27]) was at least 20 µM and the Kd (HLA-A*31:01; [27]) was 6.3 µM. The Kd (HLA-B*15:01 [12]) was at least 20 µM, the Kd (HLA-B*27:05 [1]; [27]) was at least 20 µM and the Kd (HLA-A*26:01 [2]; [28]) was at least 20 µM. It also gave a Kd (HLA-B*40:01; [27]) of at least 20 µM, a Kd (HLA-B*58:01; [27]) of at least 20 µM and a Kd (HLA-B*48:01 [13]) of at least 20 µM. For the same sequence, the Kd (HLA-A*26:02 [14]) was at least 20 µM, the Kd (HLA-B*18:01 [3]; [27]) was at least 20 µM and the Kd (HLA-A*01:01 [4]; [27]) was at least 20 µM. For the same sequence, the Kd (HLA-B*46:01) was at least 20 µM, the Kd (HLA-A*11:01 [15]; [27]) was 0.164 µM and the Kd (HLA-B*08:02; [28]) was at least 20 µM. For the same sequence, the Kd (HLA-B*07:02 [16]) was at least 20 µM, the Kd (HLA-A*03:01; [27]) was 1 µM and the Kd (HLA-A*68:02 [17]) was at least 20 µM. The Kd (HLA-B*57:01 [5]; [27]) was at least 20 µM, the Kd (HLA-A*26:03; [29]) was at least 20 µM and the Kd (HLA-A*30:01; [29]) was 2.11 µM. It also gave a Kd (HLA-B*15:17; [29]) of at least 20 µM.
Work on RVYNNTARY yielded a Kd (HLA-A*02:01 [11]; [30]) of at least 20 µM, a Kd (HLA-A*31:01; [30]) of 0.432 µM and a Kd (HLA-B*40:01; [30]) of at least 20 µM. The Kd (HLA-A*69:01) was at least 20 µM, the Kd (HLA-B*58:01; [30]) was 0.016 µM and the Kd (HLA-A*11:01 [15]; [30]) was 0.0225 µM. The Kd (HLA-B*08:02; source organism: Variola virus) was at least 20 µM, the Kd (HLA-A*03:01; [30]) was 0.0507 µM and the Kd (HLA-B*15:01 [7]; [31]) was 0.187 µM. For the same sequence, the Kd (HLA-B*27:05 [18]) was at least 20 µM, the Kd (HLA-A*26:01 [19]) was 0.0768 µM and the Kd (HLA-A*26:03; [31]) was at least 20 µM. For the same sequence, the Kd (HLA-B*48:01 [20]) was at least 20 µM, the Kd (HLA-A*26:02 [21]) was 0.528 µM and the Kd (HLA-B*18:01 [22]) was at least 20 µM. It also gave a Kd (HLA-A*01:01 [23]) of at least 20 µM, a Kd (HLA-B*07:02 [9]; [31]) of at least 20 µM and a Kd (HLA-B*35:01) of 0.159 µM. The Kd (HLA-B*15:17; [31]) was 0.0015 µM, the Kd (HLA-A*68:02 [10]; [31]) was at least 20 µM and the Kd (HLA-A*02:06; [31]) was at least 20 µM. It also gave a Kd (HLA-B*57:01 [24]) of 0.655 µM.
